By EC50 is commonly meant the concentration at which the effect is half-maximal. In general, Ki refers to the equilibrium dissociation constant of an inhibitor or competing ligand from its target. As usually defined, the pKi is the negative decadic logarithm of the Ki, by convention in mol/L.

From patent US7029857B1, “Processes for obtaining compounds employing SNORF72 receptors” (H. Lundbeck A/S, priority 1999, dated 2006) come the findings set out here.

In one assay the target is T1, SNORF72 (Homo sapiens, UniProt Q9GZQ4, A395T).
T1 construct: expressed in transfected cells; host or cells: COS-7 (transient, DEAE-dextran)
The experiment in a line: Intracellular Ca2+ release (FLIPR) in SNORF72-transfected COS-7 cells. It is filed as cell-based. As to conditions: stimulation of Ca2+ release, SNORF72-transfected COS-7 cells, n = 2-7 (Table 1A). As for the experimental part: (§1) A typical protocol for the DEAE-dextran method as applied to COS-7 and HEK293 cells is described as follows. Cells to be used for transfection are split 24 hours prior to the transfection to provide flasks which are 70–80% confluent at the time of transfection. Briefly, 8 μg of receptor DNA plus 8 μg of any additional DNA needed (e.g. Gα protein expression vector, reporter construct, antibiotic resistance marker, mock vector, etc.) are added to 9 ml of complete DMEM plus DEAE-dextran mixture (10 mg/ml in PBS). Cells plated into a T225 flask (sub-confluent) are washed once with PBS and the DNA mixture is added to each flask. The cells are allowed to incubate for 30 minutes at 37° C., 5% CO2. Following the incubation, 36 ml of complete DMEM with 80 μM chloroquine is added to each flask and allowed to incubate an additional 3 hours. The medium is then aspirated and 24 ml of complete medium containing 10% DMSO for exactly 2 minutes and then aspirated. The cells are then washed 2 times with PBS and 30 ml of complete DMEM added to each flask. The cells are then allowed to incubate over night. The next day the cells are harvested by trypsinization and reseeded into 96 well plates.
(§2) Cells expressing the receptor of interest are plated into clear, flat-bottom, black-walled 96-well plates (Costar) at a density of 80,000–150,000 cells per well and allowed to incubate for 48 hr at 5% CO2, 37° C. The growth medium is aspirated and 100 μL of loading medium containing Fluo-3 dye is added to each well. The loading medium contains: 20 mM HEPES (Sigma), 0.1% BSA (Sigma), dye/pluronic acid mixture (e.g. 1 mM Fluo-3/AM (Molecular Probes) and 10% pluronic acid (Molecular Probes) mixed immediately before use), and 2.5 mM probenecid (Sigma)(prepared fresh). The cells are allowed to incubate for about 1 hour at 5% CO2, 37° C.
(§3) The compounds of interest are diluted in wash buffer (Hank's BSS (without phenol red), 20 mM HEPES, 2.5 mM probenecid) to a 4× final concentration and aliquoted into a clear v-bottom plate (Nunc). Following the dye incubation, the cells are washed 4 times to remove excess dye using a Denley plate washer. 100 μL final volume of wash buffer is then added to each cell well. Compounds are added to the cell plates and responses are measured using the FLIPR™ instrument. The data are then collected and analyzed using the FLIPR™ software and Graphpad Prism.
(§4) COS-7 cells were transiently transfected with SNORF62, SNORF72 or vector DNA (mock) as described in Materials and Methods.

For assay [1], the target named is T2, SNORF62 (Homo sapiens, UniProt Q9HB89).
T2 sequence (Q9HB89 1-426): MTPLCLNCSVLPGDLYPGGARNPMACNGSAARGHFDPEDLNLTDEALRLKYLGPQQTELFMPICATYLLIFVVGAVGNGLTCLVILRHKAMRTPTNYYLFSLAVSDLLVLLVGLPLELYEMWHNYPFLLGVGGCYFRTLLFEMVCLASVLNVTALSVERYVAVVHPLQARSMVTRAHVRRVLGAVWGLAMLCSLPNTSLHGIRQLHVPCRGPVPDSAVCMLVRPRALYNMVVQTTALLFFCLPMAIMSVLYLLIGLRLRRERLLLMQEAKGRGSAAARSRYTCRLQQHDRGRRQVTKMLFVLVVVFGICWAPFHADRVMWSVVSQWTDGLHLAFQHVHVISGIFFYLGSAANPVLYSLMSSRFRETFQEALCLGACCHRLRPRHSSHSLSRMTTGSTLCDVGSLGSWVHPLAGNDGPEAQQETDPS
The experiment in a line: Intracellular Ca2+ release (FLIPR) in SNORF62-transfected COS-7 cells. It is filed as cell-based. Also on record: The SNORF62 cDNA codes for a protein of 426 amino acids; expressed in transfected cells; host or cells: COS-7 (transient, DEAE-dextran). As to conditions: stimulation of Ca2+ release, SNORF62-transfected COS-7 cells, n = 2-7 (Table 1A). As for the experimental part: as §1, §2, §3, §4

The target of assay [2] is T2, SNORF62. Description: Displacement of [125I]rat NMU-23 binding in SNORF62-transfected COS-7 membranes. On the set-up: The SNORF62 cDNA codes for a protein of 426 amino acids; expressed in transfected cells; host or cells: COS-7 (transient, DEAE-dextran). As to conditions: binding affinity, SNORF62-transfected COS-7 cells (Table 1A); read-out: SNORF62 Avg Ki. Here is the method: The specifics of preparing such cell membranes may in some cases be determined by the nature of the ensuing assay but typically involve harvesting whole cells and disrupting the cell pellet by sonication in ice cold buffer (e.g. 20 mM Tris HCl, mM EDTA, pH 7.4 at 4° C.). The resulting crude cell lysate is cleared of cell debris by low speed centrifugation at 200×g for 5 min at 4° C. The cleared supernatant is then centrifuged at 40,000×g for 20 min at 4° C., and the resulting membrane pellet is washed by suspending in ice cold buffer and repeating the high speed centrifugation step. The final washed membrane pellet is resuspended in assay buffer. Protein concentrations are determined by the method of Bradford (1976) using bovine serum albumin as a standard. The membranes may be used immediately or frozen for later use.
(§5) Radioligand binding assays were performed by diluting membranes prepared from cells expressing the receptor in 50 mM Tris buffer (pH=7.4 at 0° C.) containing 0.1% bovine serum albumin (Sigma), aprotinin (0.005 mg/ml, Boehringer Mannheim) and bestatin (0.1 mM, Sigma) as protease inhibitors. The final protein concentration in the assay was 12–40 μg/ml. […] The bound ligand was separated from free by filtration through GF/B filters presoaked in 0.5% polyethyleneimine (PEI), using a Tomtec (Wallac) vacuum filtration device. After addition of Ready Safe (Beckman) scintillation fluid, bound radioactivity was quantitated using a Trilux (Wallac) scintillation counter (approximately 40% counting efficiency of bound counts). Data was fit to non-linear curves using GraphPad Prism.
In this manner, agonist or antagonist compounds that bind to the receptor may be identified as they inhibit the binding of the labeled ligand to the membrane protein of cells expressing the said receptor. Non-specific binding was defined as the amount of radioactivity remaining after incubation of membrane protein in the presence of 100 nM of the unlabeled peptide corresponding to the radioligand used. In equilibrium saturation binding assays membrane preparations or intact cells transfected with the receptor are incubated in the presence of increasing concentrations of the labeled compound to determine the binding affinity of the labeled ligand.

For assay [3], the target named is T2, SNORF62. Description: Calcium-activated Cl- currents in Xenopus oocytes injected with SNORF62 mRNA. It is filed as cell-based. On the set-up: from linearized plasmids or PCR products containing the complete coding region of the gene; expressed in transfected cells; host or cells: Xenopus laevis oocytes injected with in vitro transcribed SNORF62 mRNA. As to conditions: 1 μM peptide, n=3. Here is the method:
Heterologous expression of GPCRs in Xenopus oocytes has been widely used to determine the identity of signaling pathways activated by agonist stimulation (Gundersen et al., 1983; Takahashi et al., 1987). Activation of the phospholipase C (PLC) pathway is assayed by applying a test compound in ND96 solution to oocytes previously injected with mRNA for the human SNORF62 and observing inward currents at a holding potential of approximately −80 mV. The appearance of currents that reverse at −25 mV and display other properties of the Ca^++-activated Cl^− channel is indicative of receptor-acitivation of PLC and release of IP3 and intracellular Ca^++.
In the present invention, oocytes were harvested from Xenopus laevis and injected with mRNA transcripts as previously described (Quick and Lester, 1994; Smith et al., 1997). SNORF62 mRNA transcript was synthesized using the T7 polymerase (“Message Machine”, Ambion) from linearized plasmids or PCR products containing the complete coding region of the gene. Oocytes were injected with 1–50 ng synthetic receptor RNA and incubated for 3–8 days at 17° C. Currents were recorded under dual electrode voltage clamp (Axon Instruments Inc.) with 3 M KCl-filled glass microelectrodes having resistances of 1–2 Mohm. Unless otherwise specified, oocytes were voltage clamped at a holding potential of −80 mV. […]

In assay [4] the target is T3, human SNORF62 receptor (human, UniProt Q9HB89 1-426).
T3 sequence: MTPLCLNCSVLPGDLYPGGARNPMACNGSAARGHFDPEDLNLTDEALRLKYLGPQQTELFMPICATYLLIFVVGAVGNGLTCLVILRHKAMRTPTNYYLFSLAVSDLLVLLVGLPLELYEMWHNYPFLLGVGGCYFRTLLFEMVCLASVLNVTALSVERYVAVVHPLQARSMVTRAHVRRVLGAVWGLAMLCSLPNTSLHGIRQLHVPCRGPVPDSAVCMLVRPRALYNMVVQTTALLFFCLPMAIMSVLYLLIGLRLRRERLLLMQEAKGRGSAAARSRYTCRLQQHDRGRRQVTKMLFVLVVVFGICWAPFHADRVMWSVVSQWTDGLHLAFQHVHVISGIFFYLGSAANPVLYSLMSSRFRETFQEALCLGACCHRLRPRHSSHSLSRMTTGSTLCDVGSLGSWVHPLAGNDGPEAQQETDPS
The experiment in a line: cell-based or functional assay.

Assay [5] deals with T3, human SNORF62 receptor. Description: cell-based or functional assay. The source holds these as a separate data set.
The target in assay [6] is T4, human SNORF72 receptor (human, UniProt Q9GZQ4 1-415). The experiment in a line: cell-based or functional assay.
The target in assay [7] is T4, human SNORF72 receptor. Description: displacement of [125I]rat NMU-23, membranes of SNORF72-transfected COS-7 cells. As for the experimental part: as §5, with “µg/ml.” for “μg/ml.”
(Loss of bound radioactivity is the signal in a displacement assay; it reports binding, not function.)

The target in assay [8] is T3, human SNORF62 receptor. Description: displacement of [125I]rat NMU-23 (0.05-0.1 nM), membranes of SNORF62-transfected COS-7 cells, n=2. Here is the method: as §5, with “µg/ml.” for “μg/ml.”
Assay [9] concerns the target T4, human SNORF72 receptor. Description: displacement of [125I]rat NMU-23 (0.05-0.1 nM), membranes of SNORF72-transfected COS-7 cells, n=2. As for the experimental part: as §5, with “µg/ml.” for “μg/ml.”
Assay [10] has as its target T3, human SNORF62 receptor. Description: cell-based or functional assay. This is another data set of the same source.
The target in assay [11] is T3, human SNORF62 receptor. Description: displacement of [125I]rat NMU-23, membranes of SNORF62-transfected COS-7 cells. Here is the method:
as §5, with “µg/ml.” for “μg/ml.”

No end group written: not given here.

T4 sequence (Q9GZQ4 other isoform, or with tags, fused parts or gaps): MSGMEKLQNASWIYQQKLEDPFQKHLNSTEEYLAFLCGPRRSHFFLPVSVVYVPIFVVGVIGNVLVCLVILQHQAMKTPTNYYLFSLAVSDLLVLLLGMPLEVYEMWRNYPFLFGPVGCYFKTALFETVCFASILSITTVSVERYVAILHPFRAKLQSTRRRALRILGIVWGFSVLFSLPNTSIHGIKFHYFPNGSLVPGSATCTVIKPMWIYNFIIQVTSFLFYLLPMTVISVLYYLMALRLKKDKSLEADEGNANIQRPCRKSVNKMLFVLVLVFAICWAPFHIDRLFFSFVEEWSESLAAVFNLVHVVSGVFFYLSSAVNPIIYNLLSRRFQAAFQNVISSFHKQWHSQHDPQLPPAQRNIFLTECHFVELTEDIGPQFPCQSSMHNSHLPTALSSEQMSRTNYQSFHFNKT
T1 sequence (Q9GZQ4 whole entry A395T): as the sequence (Q9GZQ4 other isoform, or with tags, fused parts or gaps) above

As to `CC[C@H](C)[C@H](NC(=O)[C@@H]1CCCN1C(=O)CNC(=O)[C@H](CCC(N)=O)NC(=O)[C@H](Cc1ccccc1)NC(=O)[C@H](CCC(=O)O)NC(=O)[C@H](CCC(=O)O)NC(=O)[C@H](CC(=O)O)NC(=O)[C@@H](NC(=O)[C@H](CCCCN)NC(=O)[C@@H](N)Cc1ccccc1)C(C)C)C(=O)N[C@H](C(=O)N[C@@H](CO)C(=O)N[C@@H](CCC(N)=O)C(=O)N[C@@H](CC(N)=O)C(=O)N[C@@H](CCCNC(=N)N)C(=O)N[C@@H](CCCNC(=N)N)C(=O)N[C@@H](Cc1ccc(O)cc1)C(=O)N[C@@H](Cc1ccccc1)C(=O)N[C@@H](CC(C)C)C(=O)N[C@@H](Cc1ccccc1)C(=O)N[C@@H](CCCNC(=N)N)C(=O)N1CCC[C@H]1C(=O)N[C@@H](CCCNC(=N)N)C(=O)N[C@@H](CC(N)=O)C(N)=O)C(C)C` [porcine NMU-25, FKVDEEFQGPIVSQNRRYFLFRPRN—NH2], the half-maximal effective concentration (EC50) at SNORF72 turned out to be 3 ± 0.7 nM; at SNORF62 [1], 5.2 ± 0.8 nM. The Ki on SNORF62 [2] came to 1.1 ± 0.2 nM. Further, the current amplitude at SNORF62 [3] came out at 2150±330 nA.
Consider FKVDEEFQGPIVSQNRRYFLFRPRN-NH2 (also called porcine neuromedin U-25) [porcine NMU-25], for which the “AVG EC50 (nM), stimulation of Ca++ release in SNORF62-transfected COS-7 cells (FLIPR)” value in the assay with human SNORF62 receptor [4] worked out at 5.2 nM. For the same molecule, the “Avg EC50 (nM), stimulation of Ca2+ release in SNORF62-transfected COS-7 cells” value with human SNORF62 receptor [5] amounted to 5.2 nM. Also, the “Avg EC50 (nM), stimulation of Ca2+ release in SNORF72-transfected COS-7 cells” value with human SNORF72 receptor [6] was found to be 3 nM. Also, in the assay with human SNORF72 receptor [7], the inhibition constant (Ki) came out at 1.8 nM. Besides, the pKi with human SNORF62 receptor [8] stood at 9; with human SNORF72 receptor [9], 8.7.
As for FRVDEEFQSPFASQSRGYFLFRPRN-NH2 (also called human neuromedin U-25) [human NMU-25], in the assay with human SNORF62 receptor [10], the “EC50, release of IP second messengers in SNORF62-transfected COS-7 cells” value is 0.25 nM and the “release of IP second messengers, fold above basal, in SNORF62-transfected COS-7 cells” value is approximately 2 fold. Besides, the “AVG EC50 (nM), stimulation of Ca++ release in SNORF62-transfected COS-7 cells (FLIPR)” value with human SNORF62 receptor [4] is 4 nM. Also, in the assay with human SNORF62 receptor [5], the “Avg EC50 (nM), stimulation of Ca2+ release in SNORF62-transfected COS-7 cells” value turned out to be 4 nM. Moreover, the “Avg EC50 (nM), stimulation of Ca2+ release in SNORF72-transfected COS-7 cells” value in the assay with human SNORF72 receptor [6] stood at 2.4 nM. In the assay with human SNORF62 receptor [11], this molecule came in with a Ki of 2 nM. This molecule had a pKi with human SNORF62 receptor [8] of 8.7. In addition, in the assay with human SNORF72 receptor [9], the pKi amounted to 8.5.
